Source: patent US20100104557A1 (Xencor, published 2010)

T1: His-tagged HM1.24 antigen, residues N49-A163 of the extracellular domain (human, UniProt Q10589 49-163)
T1 construct: Expressed in 293T cells, purified by Ni-NTA; not shown: N-terminal His-tag and Factor Xa cleavage site
T1 sequence: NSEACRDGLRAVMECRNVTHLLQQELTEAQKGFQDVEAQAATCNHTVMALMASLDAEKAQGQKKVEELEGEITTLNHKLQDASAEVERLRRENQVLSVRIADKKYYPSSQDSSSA


Tests used:
[1] = target: T1, His-tagged HM1.24 antigen, residues …; assay: Biacore (SPR): His-tagged HM1.24 antigen coupled directly to the chip (NHS chemistry), antibody as analyte; separate kd and ka fitting
Excerpt: (§1) FIG. 17. Binding of anti-HM1.24 antibodies to HM1.24 antigen monitored by Biacore. In this format, HM1.24 antigen was coupled directly to the chip, and antibodies at multiple concentrations were used as analyte in this format.

[2] = target: T1, His-tagged HM1.24 antigen, residues …; assay: Biacore (SPR): His-tagged HM1.24 antigen coupled directly to the chip (NHS chemistry), antibody as analyte; simultaneous (global Langmuir) fitting
Excerpt: as §1

| Binder | koff [1] [s⁻¹] | kon [1] [M⁻¹ s⁻¹] | koff [2] [s⁻¹] | kon [2] [M⁻¹ s⁻¹] |
| --- | --- | --- | --- | --- |
| HM1.24_H1L4 (antibody, V domains shown, also called H1 and L4 combination; parent H1 antibody) VH: QVQLVQSGAEVKKPGASVKVSCKASGYTFTPYWMQWVRQAPGQGLEWMGSIFPGDGDTRYSQSFQGQVTISADKSISTAYMELSRLRSDDTAVYYCARGLRRGGYYFDYWGQGTLVTVSS VL: DIVMTQSPLSLPVTLGQPASISCKASQDVNTAVAWYLQKPGKSPKLLIYSASNRYTGVPDRITGSGSGTDFTLKISRVEAEDVGVYYCQQHYSTPFTFGSGTKLEIKR | 5.53e-05 | 966000 | 3.18e-05 | 834000 |
| Antibody comprising the HM1.24_H1.2 heavy chain variant and the HM1.24_L4 light chain (antibody, human IgG1, kappa, V domains shown) VH: QVQLVQSGAEVKKPGASVKVSCKASGYTFTPYWMQWVRQAPGQGLEWMGSIFPGSGDTRYSQSFQGQVTISADKSISTAYMELSRLRSDDTAVYYCARGLRRGGYYFDYWGQGTLVTVSS VL: DIVMTQSPLSLPVTLGQPASISCKASQDVNTAVAWYLQKPGKSPKLLIYSASNRYTGVPDRITGSGSGTDFTLKISRVEAEDVGVYYCQQHYSTPFTFGSGTKLEIKR | 9.54e-05 | 1.34e+06 | 7.99e-05 | 1.29e+06 |
| HM1.24_H0L0_IgG1_WT (antibody, also called WT anti-HM1.24 antibody; parent HM1.24_H0L0_IgG1 WT antibody) heavy: not shown light: DIVMTQSHKFMSTSVGDRVSITCKASQDVNTAVAWYQQKPGQSPKLLIYSASNRYTGVPDRITGSGSGTDFTFTISSVQAEDLALYYCQQHYSTPFTFGSGTKLEIKRTVAAPSVFIFPPSDEQLKSGTASVVCLLNNFYPREAKVQWKVDNALQSGNSQESVTEQDSKDSTYSLSSTLTLSKADYEKHKVYACEVTHQGLSSPVTKSFNRGEC | 4.4e-05 | 820000 | 3.57e-05 | 699000 |

Continued, values first:

| koff [1] [s⁻¹] | kon [1] [M⁻¹ s⁻¹] | koff [2] [s⁻¹] | kon [2] [M⁻¹ s⁻¹] | Binder |
| --- | --- | --- | --- | --- |
| 4.49e-05 | 782000 | 2.03e-05 | 754000 | HM1.24_H1L2 (antibody, human IgG1, kappa, V domains shown, also called H1 and L2 combination) VH: QVQLVQSGAEVKKPGASVKVSCKASGYTFTPYWMQWVRQAPGQGLEWMGSIFPGDGDTRYSQSFQGQVTISADKSISTAYMELSRLRSDDTAVYYCARGLRRGGYYFDYWGQGTLVTVSS VL: DIVMTQSPSSLSASVGDRVTITCQASQDVNTAVAWYQQKPDQSPKLLIYSASNRYTGVPDRITGSGSGTDFTLTISSLQAEDVAVYYCQQHYSTPFTFGSGTKLEIKR |
| 5.5e-05 | 863000 | 4.03e-05 | 772000 | HM1.24_H0L0 IgG1 S239D/I332E (antibody) heavy: not shown light: DIVMTQSHKFMSTSVGDRVSITCKASQDVNTAVAWYQQKPGQSPKLLIYSASNRYTGVPDRITGSGSGTDFTFTISSVQAEDLALYYCQQHYSTPFTFGSGTKLEIKRTVAAPSVFIFPPSDEQLKSGTASVVCLLNNFYPREAKVQWKVDNALQSGNSQESVTEQDSKDSTYSLSSTLTLSKADYEKHKVYACEVTHQGLSSPVTKSFNRGEC |
